Assay results reported in article PMC5413351, “Structural basis of protein translocation by the Vps4-Vta1 AAA ATPase” (eLife, 2017).

Assays:
[1] = ATPase assay (malachite green end-point); assay type: biochemical, S. cerevisiae; conditions: 1 mM ATP, 37°C, 5 min, pH 7.4, mean of all runs
Protocol: The rate of ATP hydrolysis was determined using an end-point method modified from Merrill and Hanson ([Merrill and Hanson, 2010]). Vps4 at the indicated subunit concentration was incubated with 1 mM ATP at 37°C in 20 mM HEPES/NaOH pH 7.4, 100 mM NaCl, 10 mM MgCl2, 1 mM DTT in a total volume of 10 µl. The hydrolysis reaction was stopped after 5 min by the addition of 100 µl of malachite green color reagent (14 mM ammonium molybdate, 1.3 M HCl, 1.5 mM malachite green) and 50 µl of 21% (w/v) citric acid. Absorbance at 650 nm was read using a Biotek Neo Synergy microplate reader and the amount of inorganic phosphate released by the reaction was determined using a sodium phosphate standard curve. Means and standard deviations reported in Figure 1D are from at least three independent experiments using different protein preparations with three or more technical replicates each.

[2] = target: T1, Vps4^101-437 (Saccharomyces cerevisiae, UniProt P52917, L151D); assay type: binding, S. cerevisiae; conditions: global fit of replicate titrations over [Vps4 monomer], uM, m1 = 1; L151D mutant; Std. Error 0.218; 95% CI (profile likelihood) 4.01 to 4.887; read-out: Kd (fit to normalized anisotropy data, best-fit value)
T1 construct: 6xHis (TEV-cleavable) (N, cleaved yes); made in house; host or cells: E. coli BL21(DE3)RIL
Protocol: Fluorescence polarization assay for ESCRT-III peptide binding
When equilibrium was reached, parallel and perpendicular fluorescence intensities were measured on a Biotek Synergy Neo HTS microplate reader using an excitation wavelength of 485 nm and an emission wavelength of 528 nm.

B1: Vps4^81-437: Vps4 construct residues 81-437 (pET151-Vps4(81-437)) (protein, UniProt P52917 81-437, looked up, fragment)
chain: AAKKSPSAGSGSNGGNKKISQEEGEDNGGEDNKKLRGALSSAILSEKPNVKWEDVAGLEGAKEALKEAVILPVKFPHLFKGNRKPTSGILLYGPPGTGKSYLAKAVATEANSTFFSVSSSDLVSKWMGESEKLVKQLFAMARENKPSIIFIDEVDALTGTRGEGESEASRRIKTELLVQMNGVGNDSQGVLVLGATNIPWQLDSAIRRRFERRIYIPLPDLAARTTMFEINVGDTPCVLTKEDYRTLGAMTEGYSGSDIAVVVKDALMQPIRKIQSATHFKDVSTEDDETRKLTPCSPGDDGAIEMSWTDIEADELKEPDLTIKDFLKAIKSTRPTVNEDDLLKQEQFTRDFGQEGN
[1]; 0.05 μM Vps4 subunits
  ATPase activity, average: -6.194 ATP/min/Vps4 hexamer
[1]; 1 μM Vps4 subunits
  ATPase activity, average: 456.338 ATP/min/Vps4 hexamer

B2: Vps4 full-length: yeast AAA ATPase Vps4, full-length (pET151-Vps4) (protein)
chain 1: MSTGDFLTKGIELVQKAIDLDTATQYEEAYTAYYNGLDYLMLALKYEKNPKSKDLIRAKFTEYLNRAEQLKKHLESEEANAAKKSPSAGSGSNGGNKKISQEEGEDNGGEDNKKLRGALSSAILSEKPNVKWEDVAGLEGAKEALKEAVILPVKFPHLFKGNRKPTSGILLYGPPGTGKSYLAKAVATEANSTFFSVSSSDLVSKWMGESEKLVKQLFAMARENKPSIIFIDEVDALTGTRGEGESEASRRIKTELLVQMNGVGNDSQGVLVLGATNIPWQLDSAIRRRFERRIYIPLPDLAARTTMFEINVGDTPCVLTKEDYRTLGAMTEGYSGSDIAVVVKDALMQPIRKIQSATHFKDVSTEDDETRKLTPCSPGDDGAIEMSWTDIEADELKEPDLTIKDFLKAIKSTRPTVNEDDLLKQEQFTRDFGQEGN
chain 2: MASNAARVVATAKDFDKVGLGIIGYYLQLYAVELILSEEDRSQEMTALATELLDTIEAFKKEIGGESEAEDSDKSLHVMNTLIHDQEKAKIYMLNFTMSLYNEKLKQLKDGPWDVMLKRSLWCCIDLFSCILHLWKENISETSTNSLQKRIKYCKIYLSKLAKGEIGSSDEKTLDYADFADDSEEIKDEDVDHQTSDLENNNNDKVEGLAPKDQTTSYEPVDEVPEFIDDADSVNEEEQTVDKNEDAITKDEQQVVKKEVDLTRPSAPSEPAAAEHKSYTKDELTKIMDRASKIEQIQKLAKYAISALNYEDLPTAKDELTKALDLLNSI
modifications: left off: 6xHis, N-terminal, cleaved | 6xHis, N-terminal, cleaved
[1]; 0.05 μM Vps4 subunits
  ATPase activity, average: 19.8582 ATP/min/Vps4 hexamer
[1]; 1 μM Vps4 subunits
  ATPase activity, average: 701.731 ATP/min/Vps4 hexamer

B3: Vps4^101-437: yeast Vps4 construct (residues 101–437) spanning the AAA ATPase cassette (protein, UniProt P52917 101-437, looked up, fragment)
chain: QEEGEDNGGEDNKKLRGALSSAILSEKPNVKWEDVAGLEGAKEALKEAVILPVKFPHLFKGNRKPTSGILLYGPPGTGKSYLAKAVATEANSTFFSVSSSDLVSKWMGESEKLVKQLFAMARENKPSIIFIDEVDALTGTRGEGESEASRRIKTELLVQMNGVGNDSQGVLVLGATNIPWQLDSAIRRRFERRIYIPLPDLAARTTMFEINVGDTPCVLTKEDYRTLGAMTEGYSGSDIAVVVKDALMQPIRKIQSATHFKDVSTEDDETRKLTPCSPGDDGAIEMSWTDIEADELKEPDLTIKDFLKAIKSTRPTVNEDDLLKQEQFTRDFGQEGN
[1]; 0.05 μM Vps4 subunits
  ATPase activity, average: -26.1936 ATP/min/Vps4 hexamer
[1]; 1 μM Vps4 subunits
  ATPase activity, average: 418.838 ATP/min/Vps4 hexamer

B4: Vps4(101-437) L151D (protein)
chain: QEEGEDNGGEDNKKLRGALSSAILSEKPNVKWEDVAGLEGAKEALKEAVIDPVKFPHLFKGNRKPTSGILLYGPPGTGKSYLAKAVATEANSTFFSVSSSDLVSKWMGESEKLVKQLFAMARENKPSIIFIDEVDALTGTRGEGESEASRRIKTELLVQMNGVGNDSQGVLVLGATNIPWQLDSAIRRRFERRIYIPLPDLAARTTMFEINVGDTPCVLTKEDYRTLGAMTEGYSGSDIAVVVKDALMQPIRKIQSATHFKDVSTEDDETRKLTPCSPGDDGAIEMSWTDIEADELKEPDLTIKDFLKAIKSTRPTVNEDDLLKQEQFTRDFGQEGN
modifications: left off: 6xHis, N-terminal, cleaved
[2]
  Kd: 4.43 µM
